Laboratory results published in patent publication US8765433B2, “Alcohol dehydrogenases (ADH) useful for fermentive production of lower alkyl alcohols” (priority 2009, dated 2014).

Test system: CC(C)C=O
Test: isobutyraldehyde reduction kinetics (A340, initial rates)
Type: biochemical, Mucor circinelloides
Conditions: other: 30° C., pH 7.0, NADH specific
Description: This example describes preparation of ADH-gene constructs for over-expression/purification and measurement of enzyme activities using a time-course assay. Horse-liver ADH (HLADH; A-6128) was purchased from Sigma. Achromobacter xylosoxidans SadB (SadB), Saccharomyces cerevisiae ADH6 (ScADH6) and ADH7 (ScADH7), Entamoeba histolytica ADH1 (EhADH1), Bos Taurus Aldehyde Reductase (BtARD), Beijerinckia indica subsp. Indica ATCC 9039 (BiADH), Clostridium beijerinckii ADH (CbADH), Rana perezi ADH8 (RpADH8), Rattus norvegicus ADH1 (RnADH1), Thermus sp. ATN1 ADH (TADH), Phenylobacterium zucineum HLK1 ADH (PzADH), Methylocella silvestris BL2 ADH (MsADH), Acinetobacter baumannii AYE ADH (AbADH), Geobacillus sp. WCH70 ADH (GbADH), Vanderwaltozyma polyspora DSM 70294 ADH (VpADH), Mucor circinelloides ADH (McADH), and Rhodococcus erythropolis PR4ADH (ReADH) were the candidates for which subclones were prepared for protein expression and purification.
As a routine practice, the crude extracts and purified proteins were assayed for butanol oxidation activity, in order to ensure that the recombinant proteins were active throughout the purification process. […] Alcohol oxidation activities were carried out in 50 mM sodium phosphate buffer at pH 8.8 and aldehyde reduction reactions were assayed in 190 mM potassium phosphate buffer at pH 7.0. […]
Kinetic constants of the ADH enzymes were calculated and compared to identify those candidate ADH enzymes with the most desirable properties for the conversion of isobutyraldehyde to isobutanol in the last step of the engineered pathway for isobutanol production. […] The kcat/KM is derived from the individual numbers of kcat and KM and not an experimentally determined value. […]
Seven additional candidate ADH enzymes were synthesized, expressed, and assayed according to methods such as described in Example 2. […] A comparison of KM, KI, and kcat/KM for each candidate enzyme as compared to the same parameter for SadB are given in Table 9 as a percentage of the values determined (Table 7) for SadB. […]

In the case of “Mucor circinelloides ADH (McADH), SEQ ID NO: 39 (Mucor circinelloides)”, the Km was 30 mM, the kcat was 151 s⁻¹ and the kcat/Km was 5000 M⁻¹ s⁻¹.
